From US20050260197A1 (IMMUNEX, published 2005) come the findings set out here.

The target in experiment [1] is T1, oncostatin M (125I-labeled) (UniProt P13725 26-221, limits assumed, radioiodinated (125I)).
T1 construct: also called OSM; 125I-OSM
T1 sequence (looked up): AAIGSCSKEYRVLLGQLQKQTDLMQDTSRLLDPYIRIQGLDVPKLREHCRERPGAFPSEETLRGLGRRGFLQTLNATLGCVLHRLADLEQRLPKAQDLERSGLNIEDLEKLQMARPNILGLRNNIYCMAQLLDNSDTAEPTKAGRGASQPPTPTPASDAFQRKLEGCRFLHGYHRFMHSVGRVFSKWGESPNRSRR
The experiment can be described thus: 125I-oncostatin M binding to Fc fusion captured on Protein A beads. The procedure: (§1) The transfected cells were cultured to allow expression and secretion of the fusion proteins into the culture medium. Cross-linked agarose beads bearing Protein A (Protein A Sepharose CL-4B, Pharmacia Biotech, Inc., Piscataway, N.J.) were added to the culture supernatants, whereupon the fusion proteins bound to the beads via the interaction of the Fc moiety with the Protein A. Radioiodinated oncostatin M or radioiodinated LIF was also added to the culture supernatants. Preparation of ¹²⁵I-oncostatin M is described in example 2 above. Among the known procedures for purifying and radioiodinating LIF are those described in example 1 of U.S. Pat. No. 5,284,755. The ¹²⁵I-LIF employed in this assay was recombinant human LIF labeled with 125I using the enzymobead reagent (BioRad).
(§2) The culture supernatants were incubated with the Protein A beads and ¹²⁵I-LIF or ¹²⁵I-oncostatin M for 18 hours at 4° C. Free and cell-bound ¹²⁵I-LIF or ¹²⁵i-oncostatin M were separated by low speed centrifugation through a single step density gradient of 3% glucose in PBS. The bead-bound radioiodinated proteins were quantified on a Packard Autogamma counter.

Experiment [2] deals with T2, recombinant human leukemia inhibitory factor (125I-labeled) (human, UniProt P15018 23-202, radioiodinated (125I)).
T2 construct: also called LIF; 125I-LIF
The experiment can be described thus: 125I-LIF binding to Fc fusion captured on Protein A beads. The procedure:
as §1, §2

For experiment [3], the target named is T2, recombinant human leukemia inhibitory …. The experiment can be described thus: 125I-LIF binding to Fc fusions captured on Protein A beads. The method, then: as §1, §2

T2 sequence (P15018 23-202 limits assumed): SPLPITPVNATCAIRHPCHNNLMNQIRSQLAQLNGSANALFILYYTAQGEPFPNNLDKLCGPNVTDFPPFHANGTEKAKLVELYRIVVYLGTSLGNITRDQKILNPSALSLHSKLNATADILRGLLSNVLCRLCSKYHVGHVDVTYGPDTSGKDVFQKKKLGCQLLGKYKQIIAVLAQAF

B1: soluble OSM-Rβ/Fc fusion protein (Fc fusion)
chain: ERLPLTPVSLKVSTNSTRQSLHLQWTVHNLPYHQELKMVFQIQISRIETSNVIWVGNYSTTVKWNQVLHWSWESELPLECATHFVRIKSLVDDAKFPEPNFWSNWSSWEEVSVQDSTGQDILFVFPKDKLVEEGTNVTICYVSRNIQNNVSCYLEGKQIHGEQLDPHVTAFNLNSVPFIRNKGTNIYCEASQGNVSEGMKGIVLFVSKVLEEPKDFSCETEDFKTLHCTWDPGTDTALGWSKQPSQSYTLFESFSGEKKLCTHKNWCNWQITQDSQETYNFTLIAENYLRKRSVNILFNLTHRVYLMNPFSVNFENVNATNAIMTWKVHSIRNNFTYLCQIELHGEGKMMQYNVSIKVNGEYFLSELEPATEYMARVRCADASHFWKWSEWSGQNFTTLEAAPSEAPDVWRIVSLEPGNHTVTLFWKPLSKLVEPRSCDKTHTCPPCPAPELLGGPSVFLFPPKPKDTLMISRTPEVTCVVVDVSHEDPEVKFNWYVDGVEVHNAKTKPREEQYNSTYRVVSVLTVLHQDWLNGKDYKCKVSNKALPAPMQKTISKAKGQPREPQVYTLPPSRDELTKNQVSLTCLVKGFYPRHIAVEWESNGQPENNYKTTPPVLDSDGSFFLYSKLTVDKSRWQQGNVFSCSVMHEALHNHYTQKSLSLSPGK
notes: Truncated extracellular domain of OSM-Rβ; Tested from culture supernatant, captured on Protein A beads; also called experiment D
In the case of B1, the binding result in experiment [1] and in experiment [2] was “no binding” in each case.

B2: soluble human gp130/Fc fusion protein (Fc fusion)
chain: ELLDPCGYISPESPVVQLHSNFTAVCVLKEKCMDYFHVNANYIVWKTNHFTIPKEQYTIINRTASSVTFTDIASLNIQLTCNILTFGQLEQNVYGITIISGLPPEKPKNLSCIVNEGKKMRCEWDGGRETHLETNFTLKSEWATHKFADCKAKRDTPTSCTVDYSTVYFVNIEVWVEAENALGKVTSDHINFDPVYKVKPNPPHNLSVINSEELSSILKLTWTNPSIKSVIILKYNIQYRTKDASTWSQIPPEDTASTRSSFTVQDLKPFTEYVFRIRCMKEDGKGYWSDWSEEASGITYEDRPSKAPSFWYKIDPSHTQGYRTVQLVWKTLPPFEANGKILDYEVTLTRWKSHLQNYTVNATKLTVNLTNDRYLATLTVRNLVGKSDAAVLTIPACDFQATHPVMDLKAFPKDNMLWVEWTTPRESVKKYILEWCVLSDKAPCITDWQQEDGTVHRTYLRGNLAESKCYLITVTPVYADGPGSPESIKAYLKQAPPSKGPTVRTKKVGKNEAVLEWDQLPVDVQNGFIRNYTIFYRTIIGNETAVNVDSSHTEYTLSSLTSDTLYMVRMAAYTDEGGKDGPEPRSCDKTHTCPPCPAPELLGGPSVFLFPPKPKDTLMISRTPEVTCVVVDVSHEDPEVKFNWYVDGVEVHNAKTKPREEQYNSTYRVVSVLTVLHQDWLNGKDYKCKVSNKALPAPMQKTISKAKGQPREPQVYTLPPSRDELTKNQVSLTCLVKGFYPRHIAVEWESNGQPENNYKTTPPVLDSDGSFFLYSKLTVDKSRWQQGNVFSCSVMHEALHNHYTQKSLSLSPGK
notes: Tested from culture supernatant, captured on Protein A beads; also called soluble gp130/Fc; experiment B; not shown: 7 amino acid peptide linker encoded by the polylinker of plasmid hIgG1Fc
For B2, the binding result in experiment [2] is “no binding”.

B3: proteins expressed by cells co-transfected with vectors encoding soluble OSM-Rβ/Fc and soluble gp130/Fc (Fc fusion)
chain 1: ERLPLTPVSLKVSTNSTRQSLHLQWTVHNLPYHQELKMVFQIQISRIETSNVIWVGNYSTTVKWNQVLHWSWESELPLECATHFVRIKSLVDDAKFPEPNFWSNWSSWEEVSVQDSTGQDILFVFPKDKLVEEGTNVTICYVSRNIQNNVSCYLEGKQIHGEQLDPHVTAFNLNSVPFIRNKGTNIYCEASQGNVSEGMKGIVLFVSKVLEEPKDFSCETEDFKTLHCTWDPGTDTALGWSKQPSQSYTLFESFSGEKKLCTHKNWCNWQITQDSQETYNFTLIAENYLRKRSVNILFNLTHRVYLMNPFSVNFENVNATNAIMTWKVHSIRNNFTYLCQIELHGEGKMMQYNVSIKVNGEYFLSELEPATEYMARVRCADASHFWKWSEWSGQNFTTLEAAPSEAPDVWRIVSLEPGNHTVTLFWKPLSKLVEPRSCDKTHTCPPCPAPELLGGPSVFLFPPKPKDTLMISRTPEVTCVVVDVSHEDPEVKFNWYVDGVEVHNAKTKPREEQYNSTYRVVSVLTVLHQDWLNGKDYKCKVSNKALPAPMQKTISKAKGQPREPQVYTLPPSRDELTKNQVSLTCLVKGFYPRHIAVEWESNGQPENNYKTTPPVLDSDGSFFLYSKLTVDKSRWQQGNVFSCSVMHEALHNHYTQKSLSLSPGK
chain 2: ELLDPCGYISPESPVVQLHSNFTAVCVLKEKCMDYFHVNANYIVWKTNHFTIPKEQYTIINRTASSVTFTDIASLNIQLTCNILTFGQLEQNVYGITIISGLPPEKPKNLSCIVNEGKKMRCEWDGGRETHLETNFTLKSEWATHKFADCKAKRDTPTSCTVDYSTVYFVNIEVWVEAENALGKVTSDHINFDPVYKVKPNPPHNLSVINSEELSSILKLTWTNPSIKSVIILKYNIQYRTKDASTWSQIPPEDTASTRSSFTVQDLKPFTEYVFRIRCMKEDGKGYWSDWSEEASGITYEDRPSKAPSFWYKIDPSHTQGYRTVQLVWKTLPPFEANGKILDYEVTLTRWKSHLQNYTVNATKLTVNLTNDRYLATLTVRNLVGKSDAAVLTIPACDFQATHPVMDLKAFPKDNMLWVEWTTPRESVKKYILEWCVLSDKAPCITDWQQEDGTVHRTYLRGNLAESKCYLITVTPVYADGPGSPESIKAYLKQAPPSKGPTVRTKKVGKNEAVLEWDQLPVDVQNGFIRNYTIFYRTIIGNETAVNVDSSHTEYTLSSLTSDTLYMVRMAAYTDEGGKDGPEPRSCDKTHTCPPCPAPELLGGPSVFLFPPKPKDTLMISRTPEVTCVVVDVSHEDPEVKFNWYVDGVEVHNAKTKPREEQYNSTYRVVSVLTVLHQDWLNGKDYKCKVSNKALPAPMQKTISKAKGQPREPQVYTLPPSRDELTKNQVSLTCLVKGFYPRHIAVEWESNGQPENNYKTTPPVLDSDGSFFLYSKLTVDKSRWQQGNVFSCSVMHEALHNHYTQKSLSLSPGK
notes: also called OSM-Rβ/Fc and gp130/Fc; experiment F; not shown: 7 amino acid peptide linker encoded by the polylinker of plasmid hIgG1Fc
As for B3, the binding result in experiment [3] is “no binding”.
